Measured values: patent US20240207382A1 (HEALTH RESEARCH, published 2024)

Target: T1, mouse Factor H (FH from mouse, MyBiosource) (mouse, UniProt P06909 19-1234)
T1 construct: Bought protein, coated on microtiter wells; also called mouse FH
Assay: quantitative ELISA, mouse FH coated, GST-tagged protein (0.03125-2 µM) detected with anti-GST

T1 sequence (P06909 19-1234): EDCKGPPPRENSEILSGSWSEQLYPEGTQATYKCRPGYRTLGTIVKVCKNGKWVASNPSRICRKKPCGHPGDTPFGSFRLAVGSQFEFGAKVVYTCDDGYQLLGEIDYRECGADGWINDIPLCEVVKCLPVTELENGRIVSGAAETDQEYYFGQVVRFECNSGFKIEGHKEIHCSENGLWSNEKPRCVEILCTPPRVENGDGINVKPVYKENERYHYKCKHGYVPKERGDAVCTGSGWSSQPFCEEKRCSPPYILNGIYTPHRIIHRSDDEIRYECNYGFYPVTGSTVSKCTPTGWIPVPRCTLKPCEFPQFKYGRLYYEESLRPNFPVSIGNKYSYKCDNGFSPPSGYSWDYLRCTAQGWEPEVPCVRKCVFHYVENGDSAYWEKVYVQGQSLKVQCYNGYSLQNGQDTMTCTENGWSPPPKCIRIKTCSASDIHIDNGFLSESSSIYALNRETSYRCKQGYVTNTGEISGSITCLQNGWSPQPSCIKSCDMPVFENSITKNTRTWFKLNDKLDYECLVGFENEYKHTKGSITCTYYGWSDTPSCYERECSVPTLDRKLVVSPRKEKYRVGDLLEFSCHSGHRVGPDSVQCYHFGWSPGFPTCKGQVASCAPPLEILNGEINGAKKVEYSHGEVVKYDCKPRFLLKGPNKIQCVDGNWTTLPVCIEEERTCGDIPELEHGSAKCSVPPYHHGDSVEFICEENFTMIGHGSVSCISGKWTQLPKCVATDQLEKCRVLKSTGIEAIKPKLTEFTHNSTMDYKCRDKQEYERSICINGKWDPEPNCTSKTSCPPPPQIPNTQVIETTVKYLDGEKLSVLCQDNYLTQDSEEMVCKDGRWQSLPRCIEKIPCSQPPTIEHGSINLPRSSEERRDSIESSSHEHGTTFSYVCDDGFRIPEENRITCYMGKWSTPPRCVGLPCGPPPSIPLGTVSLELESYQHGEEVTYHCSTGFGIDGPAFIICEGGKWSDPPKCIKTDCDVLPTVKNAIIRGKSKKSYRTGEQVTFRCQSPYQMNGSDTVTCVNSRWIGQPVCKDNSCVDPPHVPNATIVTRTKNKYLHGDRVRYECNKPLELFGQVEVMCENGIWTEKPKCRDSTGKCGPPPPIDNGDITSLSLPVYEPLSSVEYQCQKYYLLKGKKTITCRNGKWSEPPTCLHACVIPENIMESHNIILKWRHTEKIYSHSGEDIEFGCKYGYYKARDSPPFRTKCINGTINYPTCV

B1: GST tagged CspZ (residue 20 to 236 of CspZ from B. burgdorferi strain B31) (other)
chain: DVSRLNQRNINELKIFVEKAKYYSIKLDAIYNECTGAYNDIMTYSEGTFSDQSKVNQAISIFKKDNKIVNKFKELEKIIEEYKPMFLSKLIDDFAIELDQAVDNDVSNARHVADSYKKLRKSVVLAYIESFDVISSKFVDSKFVEASKKFVNKAKEFVEENDLIALECIVKTIGDMVNDREINSRSRYNNFYKKEADFLGAAVELEGAYKAIKQTLL
notes: also called wild type CspZ; CRASP-2; not shown: glutathione-S-transferase (GST) tag encoded by plasmid pGEX-6P1
binding result: binds
